Measured values reported in article PMC8602292, “Acyl carrier protein promotes MukBEF action in Escherichia coli chromosome organization-segregation” (Nature Communications, 2021).

T1: MukB^K1114E (Escherichia coli, UniProt P22523 1-1486, K1114E)
T1 construct: E. coli MukB with K1114E; Mutant of the whole MukB-His as far as the text tells; source: E. coli FL01 (mukB 3xFLAG C3013I), purified (TALON, HiTrap Heparin, Superdex 200); not shown: His tag, C-terminal, kept
T1 sequence (looked up): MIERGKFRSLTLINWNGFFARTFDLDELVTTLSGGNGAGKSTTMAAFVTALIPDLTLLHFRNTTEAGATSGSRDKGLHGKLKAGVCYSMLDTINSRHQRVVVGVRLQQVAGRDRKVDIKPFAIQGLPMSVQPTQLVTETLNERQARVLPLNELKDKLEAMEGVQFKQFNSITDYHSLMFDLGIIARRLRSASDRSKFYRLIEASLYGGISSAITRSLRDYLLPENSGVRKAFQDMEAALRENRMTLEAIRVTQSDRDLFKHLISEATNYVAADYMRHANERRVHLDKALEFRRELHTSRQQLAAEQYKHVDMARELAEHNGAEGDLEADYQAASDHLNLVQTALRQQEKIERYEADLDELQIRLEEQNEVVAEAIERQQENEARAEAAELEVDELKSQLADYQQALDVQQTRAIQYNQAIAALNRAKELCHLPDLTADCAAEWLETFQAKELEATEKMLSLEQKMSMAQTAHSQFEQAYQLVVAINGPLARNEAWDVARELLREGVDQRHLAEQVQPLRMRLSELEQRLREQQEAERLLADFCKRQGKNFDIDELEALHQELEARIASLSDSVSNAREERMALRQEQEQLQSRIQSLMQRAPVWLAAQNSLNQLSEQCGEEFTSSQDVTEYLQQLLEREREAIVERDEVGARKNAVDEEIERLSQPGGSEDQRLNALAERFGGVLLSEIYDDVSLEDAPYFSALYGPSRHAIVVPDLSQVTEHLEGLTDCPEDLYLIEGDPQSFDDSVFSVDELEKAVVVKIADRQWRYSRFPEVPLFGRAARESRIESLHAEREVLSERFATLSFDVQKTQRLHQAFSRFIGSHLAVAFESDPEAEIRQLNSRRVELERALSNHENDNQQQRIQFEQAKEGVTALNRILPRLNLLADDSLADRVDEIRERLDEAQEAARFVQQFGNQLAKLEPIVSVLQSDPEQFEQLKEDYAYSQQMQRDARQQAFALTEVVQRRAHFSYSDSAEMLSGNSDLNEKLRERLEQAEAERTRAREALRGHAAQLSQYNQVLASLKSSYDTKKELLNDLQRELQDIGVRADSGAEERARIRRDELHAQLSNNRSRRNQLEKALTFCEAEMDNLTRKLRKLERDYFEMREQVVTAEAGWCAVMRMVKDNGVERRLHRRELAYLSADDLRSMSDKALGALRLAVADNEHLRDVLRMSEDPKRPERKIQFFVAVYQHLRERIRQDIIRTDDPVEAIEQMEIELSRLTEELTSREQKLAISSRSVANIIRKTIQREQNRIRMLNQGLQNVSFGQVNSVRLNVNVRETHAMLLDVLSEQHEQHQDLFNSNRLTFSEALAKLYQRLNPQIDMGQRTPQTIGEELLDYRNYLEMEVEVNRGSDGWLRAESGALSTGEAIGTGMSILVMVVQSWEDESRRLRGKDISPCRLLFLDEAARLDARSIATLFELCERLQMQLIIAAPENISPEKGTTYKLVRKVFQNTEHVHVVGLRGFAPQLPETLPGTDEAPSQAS


Assays:
MukB^K1114E = biological target: T1, MukB^K1114E; assay: native gel or EMSA; BN-PAGE; MukB or MukB^HN (0-4.5 μM) with MukF (1.5 μM), MukE (3 μM) and AcpP as indicated or none; 1 mM DTT, 1 mM MgCl2, 30 min at 22 °C; 3-12% native Bis-Tris gels; AMPPNP in some samples; details: both partners purified
[1] = biological target: the molecule itself; assay: native MS; mixtures of MukB, MukE, MukF and AcpP at various concentrations of MukB; 200 mM ammonium acetate pH 8.0

Row | binding result (MukB^K1114E) | Binder | binding result [1]
1 | binds | MukE (MukE-His) (natural protein, Escherichia coli, UniProt P22524 1-234, looked up, MukE, the KITE protein of Escherichia coli MukBEF; The end of the tag is read from the printed name 'MukE-His'; also called KITE protein MukE; source: E. coli C3013I (NEB), pET vector, purified (TALON, HiTrap DEAE FF, Superdex 200)) MSSTNIEQVMPVKLAQALANPLFPALDSALRSGRHIGLDELDNHAFLMDFQEYLEEFYARYNVELIRAPEGFFYLRPRSTTLIPRSVLSELDMMVGKILCYLYLSPERLANEGIFTQQELYDELLTLADEAKLLKLVNNRSTGSDVDRQKLQEKVRSSLNRLRRLGMVWFMGHDSSKFRITESVFRFGADVRAGDDPREAQRRLIRDGEAMPIENHLQLNDETEENQPDSGEEE | 
2 | binds | MukF (His-MukF) (natural protein, Escherichia coli, UniProt P60293 1-440, looked up, MukF, the kleisin of Escherichia coli MukBEF; The end of the tag is read from the printed name 'His-MukF'; also called kleisin MukF; source: E. coli C3013I (NEB), pET vector, purified (TALON, HiTrap DEAE FF, Superdex 200)) MSEFSQTVPELVAWARKNDFSISLPVDRLSFLLAVATLNGERLDGEMSEGELVDAFRHVSDAFEQTSETIGVRANNAINDMVRQRLLNRFTSEQAEGNAIYRLTPLGIGITDYYIRQREFSTLRLSMQLSIVAGELKRAADAAEEGGDEFHWHRNVYAPLKYSVAEIFDSIDLTQRLMDEQQQQVKDDIAQLLNKDWRAAISSCELLLSETSGTLRELQDTLEAAGDKLQANLLRIQDATMTHDDLHFVDRLVFDLQSKLDRIISWGQQSIDLWIGYDRHVHKFIRTAIDMDKNRVFAQRLRQSVQTYFDEPWALTYANADRLLDMRDEEMALRDEEVTGELPEDLEYEEFNEIREQLAAIIEEQLAVYKTRQVPLDLGLVVREYLSQYPRARHFDVARIVIDQAVRLGVAQADFTGLPAKWQPINDYGAKVQAHVIDKY | binds
